Data published in the domain aggregation screens of Martell et al. (2025).

test: soluble fraction after stress (log2 fold change); higher = more stays soluble; pooled small domains, quantitative proteomics; conditions: stress: 50 degC
Procedure, shortened: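 Each library was heated to 50°C as a stress step. The libraries, made up of small protein domains, were pooled and analysed at high throughput by quantitative proteomics. The reported value is the base-two logarithm of the fold change in each protein's soluble amount after stress, taken as a measure of aggregation propensity. The higher the value, the more protein stays in solution.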

Sequence	soluble fraction (log2)
HMKRTLLLEGRTIPYELTQKPVKNINIRVHADGSVRVSAGPWVSPEAVDAVLRQRSAFLLRALDQFAAQAP	-0.996
HMAQRAADEARTHEILGLLRQARAALDHGGTARAARLRASIAEKLPAAPALPAWFARQLEQVDSQLAELQD	-0.432
HMGYTLDVAHGVTEDMNFSEAFATAREEVGPGGIFYWHGKPYGTYYENEWNAMDEEDKAEYWDAVGRTTA	-0.149
HMSKNYYEILGVTPDVELSQLKAVYRRLVRKYHPDINPDGELIFKDITEAYEVLSDEKQRKQYDMINGF	-0.0246
HMQISDSSLIAKTVATVILENPEAVSDYLGGKHSVVRFMVGQIMKKTQGKANPKMATEMLETALNDL	-1.13
HMNIGIVSLAAVPMRKEPSDRAEMVNQILFGETFDVLEEQEKWTLVQLHHDAYQGWIDRKQWDYASGIAD	-1.01
HMNPMLEPAGEIRLSDGVLLRWQSERLPGDDTVRGPGSLYELGLYRVKVRVSAPQQGVRESSVELAGWRQV	-0.0771
HMQISSSEVLEKVVDEILSANPKSIEDYKNGKLQAAGFLMGQVMKATKGQANPAVAKELIEAKLKD	0.419
HMDFDLIAIFEEQFARALSPIEINIIKEWKNSNYSDDMIVKALKEAVKSQVFNFRYIERILINWSQNG	-0.387
HMGALTGQERRAEIMNILRQSTMPLSGAALGKQLGVSRQVVVQDIALLRQSGEEIYATNRGYVTG	-0.129
HMVAAITDLPVKSVNGRQMYYYVVRKGETVYSLTHTLGITHDRLVKANRSVEDGLRAGQILYFPVSEFG	-1.42
HMNFGEVLQTKRKSMGLTQEDLADKLFVSSETISNWETNKTTPDIDNVIRISQLFDISLNNLLL	-0.0758
HMADDFISTLFSEGIIIDTEVKQFAERQGSPLQFVRHIASNLPEPRDIITMGEVRSVMREGA	-0.149
HMEKKSKLVLAVLQGSDSDNTIRNLNERGFMVTVLSSTGGFLKKKSTTVMIGVEEDRLEEALDVLQKYAG	-0.295
HMQKVPDAFKAEQVQTLITRLGVSRAELARTLDVSLSTVNKWASGAVEPKGSALVLLKVLWMHGFKAL	-2.14
HMGGVTVQNRETHVNSTVNVRSEQTTESERVALAYQGDAITQIESYENGWSKVEYKGLSGYVMTEYL	-0.181
HMDGPGAGGRFLAEDLGTGKMTLEALQRHYVTLVYSRTGKYEETARRLEIDRRTVKKYLDEELLAELRET	0.084
HMHGTIHSAAYGGDIEAVKKFLAAGADVNANGGGRTPLDLAIQVKNTEIADLLRKHGGKTGDELKA	0.0271
HMSVFTPLTRSELETFLAPYELGRLLDFQGIAAGSENTNYFISLEKGEYVLTLVERGPVAEMPFFIELLD	-0.982
HMKGSPFSQLPKEKKKRILQAAIEVFAQNDYKHASTDEIASRAGISKGLLFYYFHDKKTLYFYLGEYLKR	-0.0373
HMREVGVPNLRGLTAEEAQIVLSNAGLNLRTEPIRRVHETITVGRIAEQDPMPDLTIRSQRSVTTWLSSGP	0.317
HMEIFSIEPDSYLGSGEEIASYYREGVTVIVNMAKLSDAESLRMVDFMSGLKLALLGNIKRITKHVYLLTP	-0.0901
HMAQRFDLGDKLNPQSSEFEYLGTSSRTGVSTYRYKNVPTQLFFGRQIGDIVVGVRRGMITLTIYNL	-0.0451
HMTDFSDLSFKYNSEEKDVLNSINLKINGGEMTSLVGHSGAGKTTILNLIPRFYEKSKGDISIDGQSIY	-0.0832
HMSTRYVRTPAGQAEIQARVFKLSRPVRNLLLVINDSRSIDDWLVQVHGITADDVAMLRAEGLIAEVS	-2.4

Sequence	soluble fraction (log2)
HMNLTEIGQRIRDRREELGLSQDRLAKLGGLPRVTINQLETGSIGDLGVSKLLNLLDLLGLTLDA	-0.108
HMAGFGDSLEKMSDAVEALKLLMSTEDARNDQNIQKIARELKDVFNKYRTHLRKSYPDQYDRIKSTL	-0.299
HMEQTMNDMLKLVDLLPQNQQDIVRMRFYENMSFKEIAESNQISINTALGRMRYAILNLRKYAAERNL	-2.35
HMYKSSRASKSEVNKFLKFIIQSLDKRGFLQPGHKRQSMIRNIENIFYRTNLSDQEIRILLGIFSTLNK	-0.62
HMPDLSYVDEVLNRYKGHKGTLITVLQQVQAHKGYLEKEALERVARSMGVPTARIYGVVTFYAQFR	0.0318
HMNGPTPEEKLAVVNAEFVRQYGDEYEELELEGEELEEYYQKALNKEDFEYDIPHLPGWDEP	0.0217
HMFSLDMDRLVRPGFMASGNVTFSDGVTGKWALDQMGRLALETAQKGYQPSPADVQAFQRELQQQLQRQG	-0.0885
HMGDSFLDHKKELQSMILSRLDLSREVPDEEIKDIIDELIIAQSKKLFLSLNDRGKLRQELFYSIRK	-0.566
HMIGTPLSEWQKDAPEEITRDQIAELVILKFVTVEQLALASDAQLQRIGMGGVGLRERAKLYLNRK	-1.15
HMPGLITLEAAKTTALNHAKLTADQVTFVKQKLDRDDGRQVYEIEFYTSDYKEYDYEIDAVSGLILEVDYD	-0.671
HMGDFVIVPDLIGKTIEEFDSELNELNLKYIISDSGNYNPDFKINSVLDQLPNANSKVKGGRKIYITLNAS	-1.37
HMGTSSAEIAAELRAQIFAGELRPGEMLPSAREITGTWNVAIATASRVHALLRSEGLATPVPGVGTVVAT	0.0105
HMEPLIRTLEEQIAEKIKNYRKGTRVYDAEHVDRWISQLPEEERMVVLTETNRLLEQNYVDQAKLME	-0.107
HMIDVGSKIRSLRKSKNISISTLAKNSDLSTGLISQIERNMVVPSIVAMWKISKALDINIGYFFE	-2.42
HMDSLEIEEPITVKSLSAASGLKISDIIRKLMQEGIMATANQVIDREQAEAVLIDYNVDLVVKR	-0.248
HMKINKQHLAFQIFGIRAKLGLSMEQFGELLGANKSSVSGWERGTVVPSSQRLKKIAELGKISLAELLTP	-1.23
HMLEVTQTDVKMYTTSGTPVYAAPDLNSAIVVYLERFVNVTVTGITDNGFYRVNLNGDYYIPGPYLISSV	-0.369
HMGTGIKQVNVVSVIGQDEETAKTTLTNLGLKVNVTYATSTSDNGKVTKQSIDAGKTVDEGTSVTITVNKV	0.241
HMVWINIRDLSDLFSKSGKSENSKNILDLQTLKIEKLLGGGQINTPYTIKVKQATPSAIEKVKQAGGEVIL	-0.0218
HMLGDAVLRQVLETIPEDPAVDYLELRRNTGMTEADLDRVLADLENLGVINKKRTVEQVLYWRT	-0.294
HMTGMEKFLTIPSIRESTAAFEREYLIHYLDENAWQVSKTAAAIGIERTTLYKKMKQLGIVPIEE	-2.07
HMLEIDPPVDEISVSRKAFYEAAGYKVNPYTHIPPRYRKEFEEHSFVVMSWPRELPEETYRKFDRYLRDV	0.103
HMTGIKISVDRLQIGNYVKLPLNWKDHPFLFSSFAIKSQEEIDLIRRLGLKQVIMFPDKSSMPPKPV	-1.33
HMIVAHEINRHLGESDQPVEIPDNRREGAVAELLKTFNNDDAFREMDDGKYEVALDGEKVREAARSLLA	0.027
HMPPPTLVESAYNHLKADIISSYLKPDEKINLKDLSQRYQVSETPIKQALNRLISEGLIISVPRKGMWVH	-0.0852

Sequence	soluble fraction (log2)
HMALHLPTTTINGRQYYYFKSKEKITVYGLSKRLGLTRQEIVEHNPSAVDGIKRGSTLYFPVDEFAD	-2.09
HMGQELRFVIQDHEAGIRLDHYLTQQVEGYSRSHLRKLMDQGLITVDGSYRKAGYRLNVGDVIHVVIPPTR	-0.443
HMGAGLKIGNDHEYANYLEYKVSVEKYAPGAILGEIKQKGIQFNTTISKTTFYRYITDGVFLTITNADLPV	0.223
HMDRDQNVEEGQRSLKSEMGRFGLLIANMDDLAERVNYGNAEDMYAAIGAGDLRLMQVVHAAEEMLG	0.127
HMDTNAIIGLRIKNLRTEKKYTLKYLSENTGLSIGFLSQLERGMTSIAIDSLDKISKVLDVELSSFFT	-1.24
HMGASIQITVNNTPVMLKNKTHYTLVDVLDFYPFDLSKMGGTELYTAINGVKSGFTDPVHANDSIEIYWI	-0.148
HMLAQDVIVKQDGGTILSKVLEIGTQEIAYKKWNSQDGPVYKIAKDQVLSVNYQNGEVDRFA	0.00732
HMNSRAERKEAAKEAIRNLLREGMTFEELTGPWLEKRFAEEPFNRGARSWQMLISEIKEEPEFQHL	0.00166
HMSFDTFKKVFSNLVEKSGYSDAEIARRLGVNRSTISRWKSGEQSPPLPKVKEIANFFGVSPMVFVD	0.0554
HMSMPTITLQHYKRGSHYYASIIETFRDPVTRKNSSRTLEALGDISEKMKEDPNYLQSLKDRVKALRSD	-0.656
HMNEYSLVPDIYGMTYDDALSSLRNVGLDGRLALASTNEDLANADTRVVWQSKEAGSIIDKGSNVMFVID	0.0609
HMGITDHIYQDLKKRLENGNYPAGTRFPSESTLADEFSVNKMTMNKIVSMLAEQGYLIRGNRGAGTRVAEN	-0.0862
HMKELTELIEKIKLRRLELGLSYQELSDLTGINKSTLQRYETGFIKKVPINQVQIIAKALNVTPGYLMG	-0.28
HMVNYKEILRLAHEGYSQRQIATNIGNSRNTVSEVLDAAKAANIAWPPEETVTNEQLGAILFPNRH	0.204
HMDIRVAHVDDDMSFGEAFAQARSQVGPGGVFEWHGKLYGTYTAEEWASMSPAERSQYQQAVFN	-0.0545
HMKNLNVIDLSALRTLELKESSDWTLIQKRFKLLVKKYHPDMNAGSKQYEEKLKKITLAYTHLKKLF	-2.42
HMSQLVTGVLRNLNDISEKIAAGKAVPEMLGRLENMQQMIANLKGNEGLIKSISILTRSAQDALR	0.00825
HMVDVNLLKYYVMESGKSLTDVAAAIGVTPATLHRKMSGESDFYRKEMQDIASYLGLDRDTIDRIFF	-1.01
HMEDESSIERYLGSGAIKGIGPSLAARIVKKFGKDTFRIIEQEPERLAEIKGISERKAMEISTLMEEK	0.0193
HMAGAPANLAARLREQILQGAYHDGQRLPAERHLAAEHGVSRGTVREALRLLEQGALLTRKRGSGSYVTYP	-0.314
HMDYQYILVDVKDRIATVTINRPEYSNAFARESYYEIADAMNTLGARDDVGVIVITGAGKHFSAGGDIKRF	-0.534
HMNNIIYLIANKLDVGKRLDQFITIRTEFSRQRVINLIEDGYVKLNNKIINLKKYKIKGDEKIEITIPEIR	-0.542
HMTKEEFLYELKKELSALDSAEATAYNLRYYSDYIDAEIAKGRSEQEVLDELGNPRWLVNSIKESG	0.122
HMWNPVLVVRGDFPKDLATTLLKMIFAQKEALNPHILFQNLLRTDNITFRESYPYHSASKTMFRF	-0.148
HMGEPLSPDARALTNVLRHYRGWAEPGELARKSGLGSRERVLTAAQSLVNAGLADIERGMVRPTAALMEVQ	0.0805
